B1: MGC16075 (parent)
chain: AGSRQALSFEVPPCNYDPEKWIQ
B2: FAM50A (parent)
chain: KKREKQREQMEQMKQRIAEENIMK

Variants of: B1
Assay: protein stability index of a GFP-peptide fusion (GPS, HEK-293T) (PSI 1-6); higher = more stable
Settings: c terminus: native
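Also: lentivirally expressed fusions sorted by FACS into six bins by GFP to DsRed ratio, PSI derived from sequencing read proportions per bin multiplied by bin number.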

Protein stability index, by site and new letter:
L7: W 2.77; R 2.5; N 2.72; M 1.86; A 2.09; K 1.82; G 2.06; I 2.07; Q 2.57; F 3.58; H 2.33; C 2.75; Y 1.76; T 2.42; S 2.11; V 1.78; D 2.45; P 1.26; E 3.23
V11: H 1.93; E 2.07; K 2.61; D 2.93; G 1.63; I 2.6; M 2.11; A 2.52; L 1.3; N 1.68; C 2.02; P 1.75
A6: D 2.91; L 3.71; I 3.05; K 2.47; T 1.53; Q 1.99; V 2.59; R 2.29; G 1.03; N 2.16; P 1.56; H 1.71; E 1.92; C 2.03; F 2.46; M 2.98; S 1.6; W 3.24
S3: R 1.57; H 2.44; M 1.92; Q 1.6; E 1.28; V 1.27; G 2.88; C 1.52; D 1.86; Y 1.28; L 1.93; I 1.99; W 2.7; N 1.59; F 4.6; P 2.18; K 2.32; T 1.79; A 1.67
E10: K 1.67; D 2.6; Y 1.75; Q 1.23; P 2.3; H 3.09; V 1.08; A 3.25; M 2.56; C 2.27; N 1.7; G 1.83; I 2.29; R 1.97; S 2.44
Q5: M 1.72; H 1.82; P 1.47; K 1.3; N 1.82; W 4.32; D 1.52; Y 2.68; V 2.35; R 1.84; S 1.48; T 2.12; A 1.8; G 2.03; F 3.99; E 3.29
S8: I 1.59; F 2.92; Q 1.26; Y 3.25; C 2.6; K 2.09; D 2.32; R 1.89; A 1.79; P 1.91; G 1.83; V 1.54; T 3.31; W 2.05; L 1.98; H 2.05; E 3.24; N 1.91
R4: A 2.66; T 2.14; C 1.57; Q 1.87; I 2.7; N 1.98; H 2.67; W 3.74; D 2.41; K 1.72; V 2.61; S 2.21; G 1.39; F 2.41; Y 1.22; M 3.08; P 2.77; L 2.53; E 1.83
F9: E 3.49; L 2.48; S 2.77; K 3.19; D 3.05; P 3.09; Y 2; N 3.75; R 2.78; Q 3.05; M 2.29; G 3.14; T 2.79; W 2.5; I 2.07; C 2.57; V 2.57; A 2.63; H 2.86
A1: P 2.5; C 1.19; N 2.23; D 2.9; S 1.46; E 2.19; Q 2.17; L 1.22; H 1.82; I 1.9; F 3.97; R 2.04; Y 2.8; T 2.09; M 1.25; W 3.29; K 2.18; G 1.68
G2: M 2.88; R 2.58; I 2.37; Q 2.2; N 2.37; D 1.93; F 2.77; W 1.68; L 2.27; A 1.77; H 2.4; P 1.94; E 1.48; K 2; Y 2.51; T 1.95; V 1.97; S 1.75

Variants of: B2
Assay: as above
Settings: c terminus: a fixed tail appended

Protein stability index of substitutions, site by site:
E20: F 3.79; H 4.39; N 4.44; R 4.48; I 4; D 4.85; T 4.85; G 4.34; V 3.74; L 3.84; K 3.96; Q 4.17; A 4.47; C 4.53; Y 3.62; P 4.8; M 3.79; W 3.47; S 3.37
N21: D 5.11; H 4.46; M 4.64; G 4.75; V 4.03; P 4.85; T 4.77; E 5.12; W 3.91; Q 5.48; F 4.31; Y 4.41; K 5.35; R 4.35; L 3.99; A 4.73; I 4.17; S 4.75; C 4.63
A18: T 4.59; P 4.79; F 4.84; Q 5.31; Y 4.43; N 4.93; C 4.35; W 4.09; M 4.12; S 4.78; R 4.39; V 4.69; K 3.97; H 4.19; G 4.64; D 5.35; I 4.36; E 4.62; L 4.72
M23: Y 4.75; P 5.46; T 4.93; C 4.83; W 4.02; G 5; A 4.63; V 5.27; L 4.49; N 4.66; S 5.28; I 4.04; H 4.89; Q 5.45; K 4.99; D 5.14; E 5.25; F 4.32; R 3.3
K24: G 4.99; H 4.97; V 4.82; L 4.13; N 4.77; S 4.88; F 4.39; A 4.33; P 4.46; D 5.12; E 4.85; R 4.16; C 5.14; I 4.35; Y 4.24; W 3.77; T 4.95; Q 4.86; M 5.03
I22: A 4.48; D 5.54; L 4.91; H 4.8; W 4.63; F 3.93; R 4.92; E 5.68; G 5.2; Q 4.75; P 5.12; K 4.16; T 5.46; C 5.22; M 5.07; S 5.33; V 4.85; N 5.12; Y 4.18
E19: S 4.33; P 4.19; V 3.47; I 2.92; A 4.63; F 3.71; K 5.08; W 3.66; N 4.34; M 4.09; R 4.98; D 4.33; Q 4.72; T 4.78; Y 4.38; G 4.78; C 3.9; L 3.22; H 4.6
I17: V 4.87; Q 5.44; M 4.87; W 4.25; Y 4.46; N 5.2; S 5.3; R 4.77; P 5.52; T 5.3

Source: the supplement of paper PMC10567573
